Source: the supplement of paper PMC10065799, “High-throughput profiling of sequence recognition by tyrosine kinases and SH2 domains using bacterial peptide display” (eLife, 2023)

Biological target: SHP2-C SH2
Assay: SH2 binding enrichment of the phosphorylated peptide, bacterial display (enrichment ratio); higher = better substrate or ligand; peptides without Tyr show the background
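Throughout, for SH2 binding enrichment of the phosphorylated peptide, bacterial display: peptide library displayed on the E. coli surface as eCPX fusions, selected cells deep-sequenced, score is each peptide's frequency after selection divided by its frequency in the input.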
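Throughout, for phosphorylation enrichment, bacterial display: 11-residue human phosphosite peptides and single-mutation variants displayed on the E. coli surface, counted by deep sequencing, each peptide's frequency after selection divided by its frequency in the unselected input library; frequency after pTyr selection over input frequency; kinase dosed for 20-30% of maximal phosphorylation in three min.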

Row | Sequence | SH2 binding enrichment
1 | VVAHQYSFAPD [TNS3_Y601] | 0.657
2 | GVSYIYTIDGS [DCX_Y105_R102S] | 16.3
3 | IDPYTYTPFGS [CYP3A4_Y432_I431T] | 0.885
4 | IDPFTYTPFGS [CYP3A4_Y432_I431T_YF] | 0.863
5 | FDKEFYSVHNK [MET_Y1235_YF] | 0.841
6 | QTSTDYDIRFY [CSNK2A1_Y131_L128S] | 0.625
7 | AVLSLYASDRT [ACTA1_Y145_G148D] | 0.88
8 | QMVGMYASSFM [AVPR2_Y124_YF] | 0.637
9 | EEVGIYRMSGV [BCR_Y1089_V1091M] | 0.957
10 | DNPAKYFILEN [DPP10_Y512_S517N] | 0.636
11 | RDLTDYLMKIL [ACTA1_Y190] | 1.37
12 | LIFVSYDDWDF [GRIN2A_Y281_S278F_YF] | 1.53
13 | PPPPAYDDVAQ [TNK2_Y635] | 0.706
14 | KDHPDYKFQLR [SOX10_Y171_P175L_YF] | 0.691
15 | SSMSDYNPLEK [MYOC_Y479_I477S] | 0.558
16 | SIKDKYVMALY [KCNH2_Y611_T613M] | 0.679
17 | EWRSPYGLTPR [GRIN3B_Y601] | 0.766

Row | Sequence | SH2 binding enrichment
18 | QEKKGYFEDRR [GLUL_Y336] | 0.761
19 | YRVAGYETQGG [TIA1_Y383] | 0.58
20 | HNQDGYSFPSR [LDLR_Y845_YF] | 0.76
21 | LTSVKYLLSAT [GSDMC_Y26_P23S] | 0.801
22 | ITQRAYRRHLL [SCN1A_Y1926_I1922T] | 0.585
23 | IVKAFYVHARA [AIPL1_Y268_R270H_YF] | 1.53
24 | RKPDIYERLAS [MCM4_Y459] | 0.71
25 | ENQEIYRKAFD [KPNA1_Y493_Q494R] | 0.719
26 | HHTNEYEYDEL [TGM1_Y134_D132N] | 0.676
27 | NQILPYIEELV [PPP2R1B_Y341_K343E] | 0.953
28 | LKRIAYFLCLL [LGI1_Y21] | 1.18
29 | KIKGRYEKCEP [KRT26_Y119_W118R] | 1.9
30 | GAAMLYFPSVS [GPR143_Y177_YF] | 0.895
31 | SVTCTYSPGLN [TP53_Y126_A129G] | 0.469
32 | RPFSPYIIRGM [LRP5_Y1531_R1529S_YF] | 0.81
33 | EDDIIYTQDFM [STK11_Y362_T367M] | 0.65

Biological target: Grb2 SH2 (UniProt P62993)
Assay: as above

Chain of Grb2 SH2 (P62993 whole entry, looked up): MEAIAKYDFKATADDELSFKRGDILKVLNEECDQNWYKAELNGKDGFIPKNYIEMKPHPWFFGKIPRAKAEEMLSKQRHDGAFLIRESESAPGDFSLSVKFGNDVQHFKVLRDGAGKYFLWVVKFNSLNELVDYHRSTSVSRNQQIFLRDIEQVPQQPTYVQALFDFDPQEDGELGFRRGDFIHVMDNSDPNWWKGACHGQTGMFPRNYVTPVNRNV

Row | Sequence | SH2 binding enrichment
34 | VVAHQYSFAPD [TNS3_Y601] | 0.702
35 | GVSYIYTIDGS [DCX_Y105_R102S] | 0.794
36 | IDPYTYTPFGS [CYP3A4_Y432_I431T] | 0.92
37 | IDPFTYTPFGS [CYP3A4_Y432_I431T_YF] | 0.746
38 | FDKEFYSVHNK [MET_Y1235_YF] | 0.917
39 | QTSTDYDIRFY [CSNK2A1_Y131_L128S] | 0.707
40 | AVLSLYASDRT [ACTA1_Y145_G148D] | 0.895
41 | QMVGMYASSFM [AVPR2_Y124_YF] | 0.626
42 | EEVGIYRMSGV [BCR_Y1089_V1091M] | 0.744
43 | DNPAKYFILEN [DPP10_Y512_S517N] | 0.659
44 | RDLTDYLMKIL [ACTA1_Y190] | 1.43
45 | LIFVSYDDWDF [GRIN2A_Y281_S278F_YF] | 1.68
46 | PPPPAYDDVAQ [TNK2_Y635] | 0.757
47 | KDHPDYKFQLR [SOX10_Y171_P175L_YF] | 0.772
48 | SSMSDYNPLEK [MYOC_Y479_I477S] | 0.746
49 | SIKDKYVMALY [KCNH2_Y611_T613M] | 0.836
50 | EWRSPYGLTPR [GRIN3B_Y601] | 1.3

Row | Sequence | SH2 binding enrichment
51 | QEKKGYFEDRR [GLUL_Y336] | 1.02
52 | YRVAGYETQGG [TIA1_Y383] | 0.608
53 | HNQDGYSFPSR [LDLR_Y845_YF] | 1.06
54 | LTSVKYLLSAT [GSDMC_Y26_P23S] | 1.03
55 | ITQRAYRRHLL [SCN1A_Y1926_I1922T] | 0.69
56 | IVKAFYVHARA [AIPL1_Y268_R270H_YF] | 1.36
57 | RKPDIYERLAS [MCM4_Y459] | 0.734
58 | ENQEIYRKAFD [KPNA1_Y493_Q494R] | 0.814
59 | HHTNEYEYDEL [TGM1_Y134_D132N] | 0.902
60 | NQILPYIEELV [PPP2R1B_Y341_K343E] | 0.979
61 | LKRIAYFLCLL [LGI1_Y21] | 1.4
62 | KIKGRYEKCEP [KRT26_Y119_W118R] | 1.67
63 | GAAMLYFPSVS [GPR143_Y177_YF] | 0.871
64 | SVTCTYSPGLN [TP53_Y126_A129G] | 0.723
65 | RPFSPYIIRGM [LRP5_Y1531_R1529S_YF] | 0.834
66 | EDDIIYTQDFM [STK11_Y362_T367M] | 0.984

Biological target: c-Src SH2
Assay: as above

Row | Sequence | SH2 binding enrichment
67 | VVAHQYSFAPD [TNS3_Y601] | 1.31
68 | GVSYIYTIDGS [DCX_Y105_R102S] | 0.726
69 | IDPYTYTPFGS [CYP3A4_Y432_I431T] | 1.17
70 | IDPFTYTPFGS [CYP3A4_Y432_I431T_YF] | 0.597
71 | FDKEFYSVHNK [MET_Y1235_YF] | 0.543
72 | QTSTDYDIRFY [CSNK2A1_Y131_L128S] | 0.36
73 | AVLSLYASDRT [ACTA1_Y145_G148D] | 0.452
74 | QMVGMYASSFM [AVPR2_Y124_YF] | 0.548
75 | EEVGIYRMSGV [BCR_Y1089_V1091M] | 0.431
76 | DNPAKYFILEN [DPP10_Y512_S517N] | 0.828
77 | RDLTDYLMKIL [ACTA1_Y190] | 1.15
78 | LIFVSYDDWDF [GRIN2A_Y281_S278F_YF] | 1.01
79 | PPPPAYDDVAQ [TNK2_Y635] | 4.13
80 | KDHPDYKFQLR [SOX10_Y171_P175L_YF] | 0.649
81 | SSMSDYNPLEK [MYOC_Y479_I477S] | 0.525
82 | SIKDKYVMALY [KCNH2_Y611_T613M] | 0.514
83 | EWRSPYGLTPR [GRIN3B_Y601] | 0.645

Row | Sequence | SH2 binding enrichment
84 | QEKKGYFEDRR [GLUL_Y336] | 0.952
85 | YRVAGYETQGG [TIA1_Y383] | 0.391
86 | HNQDGYSFPSR [LDLR_Y845_YF] | 4.23
87 | LTSVKYLLSAT [GSDMC_Y26_P23S] | 0.679
88 | ITQRAYRRHLL [SCN1A_Y1926_I1922T] | 0.404
89 | IVKAFYVHARA [AIPL1_Y268_R270H_YF] | 0.781
90 | RKPDIYERLAS [MCM4_Y459] | 0.643
91 | ENQEIYRKAFD [KPNA1_Y493_Q494R] | 0.397
92 | HHTNEYEYDEL [TGM1_Y134_D132N] | 1
93 | NQILPYIEELV [PPP2R1B_Y341_K343E] | 0.725
94 | LKRIAYFLCLL [LGI1_Y21] | 1.23
95 | KIKGRYEKCEP [KRT26_Y119_W118R] | 1.81
96 | GAAMLYFPSVS [GPR143_Y177_YF] | 0.503
97 | SVTCTYSPGLN [TP53_Y126_A129G] | 0.444
98 | RPFSPYIIRGM [LRP5_Y1531_R1529S_YF] | 0.479
99 | EDDIIYTQDFM [STK11_Y362_T367M] | 0.466

Biological target: MERTK (UniProt Q12866)
Assay: phosphorylation enrichment, bacterial display (enrichment ratio); higher = better substrate or ligand; peptides without Tyr show the background

Chain of MERTK (Q12866 whole entry, looked up): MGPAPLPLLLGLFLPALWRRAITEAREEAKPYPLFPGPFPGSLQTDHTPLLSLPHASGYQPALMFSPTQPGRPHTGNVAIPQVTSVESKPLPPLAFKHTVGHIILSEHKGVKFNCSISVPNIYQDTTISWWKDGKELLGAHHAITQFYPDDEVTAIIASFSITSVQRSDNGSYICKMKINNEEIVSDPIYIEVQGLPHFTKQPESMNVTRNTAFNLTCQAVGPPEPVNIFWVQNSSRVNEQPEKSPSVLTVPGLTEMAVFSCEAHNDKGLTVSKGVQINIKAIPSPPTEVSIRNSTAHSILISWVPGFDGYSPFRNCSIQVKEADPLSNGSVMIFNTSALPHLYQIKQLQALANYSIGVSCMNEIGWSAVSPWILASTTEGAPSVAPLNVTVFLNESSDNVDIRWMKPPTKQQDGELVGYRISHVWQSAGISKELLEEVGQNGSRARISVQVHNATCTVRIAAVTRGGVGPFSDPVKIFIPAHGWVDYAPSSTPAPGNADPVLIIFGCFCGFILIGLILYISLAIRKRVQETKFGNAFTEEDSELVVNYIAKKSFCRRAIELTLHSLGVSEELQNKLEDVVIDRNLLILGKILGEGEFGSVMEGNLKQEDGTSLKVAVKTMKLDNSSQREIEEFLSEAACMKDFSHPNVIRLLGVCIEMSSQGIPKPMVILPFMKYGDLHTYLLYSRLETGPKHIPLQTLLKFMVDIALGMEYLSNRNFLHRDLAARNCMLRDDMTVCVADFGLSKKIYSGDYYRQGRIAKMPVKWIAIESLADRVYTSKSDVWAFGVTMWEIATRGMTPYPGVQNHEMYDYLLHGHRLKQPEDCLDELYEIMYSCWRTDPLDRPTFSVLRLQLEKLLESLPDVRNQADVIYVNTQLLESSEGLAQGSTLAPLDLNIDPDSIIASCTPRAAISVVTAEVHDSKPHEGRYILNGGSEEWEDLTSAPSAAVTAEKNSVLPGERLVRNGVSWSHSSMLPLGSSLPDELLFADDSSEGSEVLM

Row | Sequence | phosphorylation enrichment
100 | VVAHQYSFAPD [TNS3_Y601] | 0.414
101 | GVSYIYTIDGS [DCX_Y105_R102S] | 1.28
102 | IDPYTYTPFGS [CYP3A4_Y432_I431T] | 1.16
103 | IDPFTYTPFGS [CYP3A4_Y432_I431T_YF] | 0.561
104 | FDKEFYSVHNK [MET_Y1235_YF] | 0.721
105 | QTSTDYDIRFY [CSNK2A1_Y131_L128S] | 0.869
106 | AVLSLYASDRT [ACTA1_Y145_G148D] | 0.446
107 | QMVGMYASSFM [AVPR2_Y124_YF] | 2.31
108 | EEVGIYRMSGV [BCR_Y1089_V1091M] | 0.647
109 | DNPAKYFILEN [DPP10_Y512_S517N] | 0.509
110 | RDLTDYLMKIL [ACTA1_Y190] | 0.477
111 | LIFVSYDDWDF [GRIN2A_Y281_S278F_YF] | 2.03
112 | PPPPAYDDVAQ [TNK2_Y635] | 0.676
113 | KDHPDYKFQLR [SOX10_Y171_P175L_YF] | 0.454
114 | SSMSDYNPLEK [MYOC_Y479_I477S] | 0.425
115 | SIKDKYVMALY [KCNH2_Y611_T613M] | 0.441
116 | EWRSPYGLTPR [GRIN3B_Y601] | 0.484

Row | Sequence | phosphorylation enrichment
117 | QEKKGYFEDRR [GLUL_Y336] | 0.605
118 | YRVAGYETQGG [TIA1_Y383] | 0.324
119 | HNQDGYSFPSR [LDLR_Y845_YF] | 1.15
120 | LTSVKYLLSAT [GSDMC_Y26_P23S] | 0.376
121 | ITQRAYRRHLL [SCN1A_Y1926_I1922T] | 0.585
122 | IVKAFYVHARA [AIPL1_Y268_R270H_YF] | 0.601
123 | RKPDIYERLAS [MCM4_Y459] | 1.65
124 | ENQEIYRKAFD [KPNA1_Y493_Q494R] | 0.393
125 | HHTNEYEYDEL [TGM1_Y134_D132N] | 0.594
126 | NQILPYIEELV [PPP2R1B_Y341_K343E] | 0.504
127 | LKRIAYFLCLL [LGI1_Y21] | 0.424
128 | KIKGRYEKCEP [KRT26_Y119_W118R] | 0.478
129 | GAAMLYFPSVS [GPR143_Y177_YF] | 0.732
130 | SVTCTYSPGLN [TP53_Y126_A129G] | 0.454
131 | RPFSPYIIRGM [LRP5_Y1531_R1529S_YF] | 0.494
132 | EDDIIYTQDFM [STK11_Y362_T367M] | 0.784
